± gives the uncertainty stated by the source.
Assay: amyloid nucleation score (Sup35N fusion, yeast selection) (log enrichment); library NNK1; higher = more nucleation; inactive = no reads after selection
Summary of the method: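 Growth for 7 days at 30°C on medium lacking adenine and uracil followed a 24-hour induction with 100 μM copper sulfate of psi-negative yeast expressing peptides of 20 random codons fused to Sup35N. Input and output plasmid inserts were sequenced with Illumina, and sequences with under 100 input reads were excluded. Nucleation score is the DiMSum log enrichment of output over input reads, centred on the mode score of non-aggregating sequences.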

Row | Substance | amyloid nucleation score
1 | YYPGSGFH | -0.531 ± 0.65
2 | WLLIRKGGVRFKIQYRHQHS | 1.73 ± 0.37
3 | HHLAKCRTLKLYLLWLQRIL | 0.471 ± 0.54
4 | RKRNKYILYYRCNRWFQLYC | -0.323 ± 1.6
5 | LLSFGTFTGPKRVYLSLSMV | 0.059 ± 0.86
6 | HVYSSVLCQQD | 0.717 ± 0.65
7 | AALSC | 0.844 ± 0.46
8 | RILMFKYGKTWRPQCCQD | 0.04 ± 0.53
9 | GVGVCYFSC | 2.2 ± 0.22
10 | CSCVCETEGRLSSSCYHHMP | 0.184 ± 0.38
11 | VAGFPVEDRLRQISSWAVSG | -1.07 ± 0.62
12 | NIGVMVLVLDARKDKRFGKI | 7.65 ± 0.082
13 | KLILWGRLSANNFYYSFGFL | -0.214 ± 0.27
14 | FECCAVLLYMGRVNACRVCC | -0.281 ± 0.44
15 | RLMDTYAEAHTQDRDMIRDV | 0.286 ± 0.49
16 | STWLLGQRRYPRHKERGRAR | 0.101 ± 0.35
17 | HYHFDTACVWCDYSVHGNKD | 7.38 ± 0.057
18 | FCARGRNRPN | 1.04 ± 0.5
19 | RYTIDLMSFNIKFWSHTLLH | -0.869 ± 1.5
20 | TYFSISQLLGFFQSVGPYVF | 0.108 ± 0.56
21 | NWSCTYRMVVS | -0.598 ± 0.22
22 | LRTVPIALIRNMLPVNQESR | 0.479 ± 0.53
23 | NKKKSLRWKGTGNGVPLVVQ | -0.399 ± 0.86
24 | YVPGSRLRPYLIQSFNNSLY | 2.81 ± 0.19
25 | LFRNANAMDYVVRCWCSRGI | 0.928 ± 0.18

Row | Substance | amyloid nucleation score
26 | RVTDLYFASGGQLMQRSVLL | 0.331 ± 0.6
27 | VFYVCFNAKLPLLGYFDLKV | inactive
28 | GSRVVQRYVAVHACVHERVT | 0.589 ± 0.4
29 | EIQGPVRT | -0.233 ± 0.59
30 | WVLVSVH | 0.211 ± 0.24
31 | TADFLCSINEAFSVFTLLRE | 1.03 ± 0.93
32 | DKGVFAMDKRITMVEFLS | -0.87 ± 1.3
33 | DGLKGSLCGMGHRLCLKKMN | 0.131 ± 0.41
34 | VFFGLTICFFVAHHCQERGS | 2.54 ± 0.21
35 | CVANLPGSKVLVWNTKFK | 5.38 ± 0.056
36 | ITVSKKATWCRQRGMRGLRG | 1.65 ± 0.59
37 | YSQYVVTSFTSLREVS | -0.332 ± 0.25
38 | ITYINLSSSYKIPRPTHMRI | 6.07 ± 0.065
39 | NSSYTCPNFRHTFCRYICYA | 0.533 ± 0.27
40 | LLFKNRISPITTI | 0.174 ± 0.47
41 | VLYFYFFIQIRVGIQYSVKN | 2.41 ± 0.41
42 | VTSYFKIRLCFPRGMASCTR | 3.37 ± 0.19
43 | CNDFCCT | inactive
44 | QYGWCIAYSLELCSLSPNLI | 0.326 ± 0.37
45 | TRNFKQK | -1.78 ± 1.8
46 | DWVVSCAYGFSSARNGGVCL | -0.039 ± 0.39
47 | HTLDSISGSCGPLIAIVDFQ | inactive
48 | VTYSYASGDGPDSLWCT | -0.026 ± 0.84
49 | SLRCVPVVSMRVRSDSSLYK | 0.529 ± 0.9
50 | PFVLYWGKLSYYDAD | 0.707 ± 0.55

Row | Substance | amyloid nucleation score
51 | FRSNGQNLVTAISSMDVRAN | -2.14 ± 2.7
52 | VLSCLPHAINFFYPSRSK | 1.05 ± 0.35
53 | GLICNIDVRMRFVFMVRGSP | 2.45 ± 0.21
54 | RVGAPFNLVRSCSGATLCEV | -0.023 ± 0.63
55 | HVWRDGSE | 1.82 ± 0.54
56 | FIIPDRVRFLKGMTSFVNSS | -0.349 ± 1
57 | SGKYAFLFLVYCTGVLMKCW | -1.17 ± 1.7
58 | LGFLRLFKKYVFYACCDVYS | -0.175 ± 0.84
59 | RFGFSLSADIMDPRMIVRCM | -0.227 ± 0.24
60 | RKWNS | 0.152 ± 0.72
61 | MVTCGYKDFK | -1.7 ± 1.5
62 | TVIRSVIIPITPPIIR | 1.57 ± 0.56
63 | ATTLGCQWDWKWSAFGAWLQ | -1.08 ± 1.1
64 | SNKSSSDIDCVYLENCSTSG | 1.43 ± 0.36
65 | HNGRVFVMRWLYGVLGECG | -1.31 ± 1.1
66 | VWELGPFCDLEVRYV | 0.531 ± 0.52
67 | LCAFLPVRTVKLCAFRIFDR | -1.06 ± 0.85
68 | GEGICL | -0.012 ± 1.1
69 | WVAINPCV | 0.464 ± 0.88
70 | SFAADLFPRLVKACYSGILM | -0.413 ± 1.5
71 | NTSSFVSTNWSGFPWSGSRY | 2.02 ± 0.24
72 | LAYKNSLWGLLWKRF | -0.011 ± 0.49
73 | FAQMWSLALRISVRNVISQF | 5.954 ± 0.047
74 | TLTRYC | -0.086 ± 1.2
75 | HMRYWLLQYGVILAQG | 0.71 ± 0.42

Row | Substance | amyloid nucleation score
76 | SCLYQGCYLNCVIDIMGCGL | 5.83 ± 0.089
77 | NGLSMSLSCRYTLWVIFFSF | -0.157 ± 1.2
78 | IYIGLLYVLCIGLASMCLTS | 0.199 ± 0.84
79 | LLDGYSLDNIGLEVGNASSN | 0.53 ± 0.41
80 | TWQNRTSLIEVTSYMFHGWV | 0.294 ± 0.59
81 | VTRYRTLTRHWWS | 0.277 ± 0.39
82 | VGYSPVVFSLNNICGSPFLM | 5.277 ± 0.047
83 | PWSRDARPSADW | inactive
84 | SMEGLMSLMHSRISRFVFRV | 0.168 ± 1.2
85 | TFVVELS | -1.64 ± 2.4
86 | AGMDVDSLYNRYGYGLEVG | -0.512 ± 0.81
87 | TKYCFPFNFQGSLHQWRRRF | 0.972 ± 0.52
88 | LAHWHFNWSRILQCFYW | 3.08 ± 0.095
89 | VMKGSRHVRDKRALYYDILR | -0.308 ± 0.59
90 | CSTALLDEKLLFHGTYIMRD | 1.08 ± 0.57
91 | AKVPVKGQRLRTGLPKSTHT | -1.88 ± 1.4
92 | MAVERLGSQVERDIRGWWRV | 0.063 ± 0.59
93 | EVRTEMIHCNLLTMRFCVLA | 0.047 ± 0.64
94 | SHRRGVKSTFLMRRLHYMWY | 0.168 ± 0.62
95 | IMAFNDRDHG | -0.093 ± 0.21
96 | SADPSNYRERIFLKLMKLHG | -0.514 ± 0.37
97 | NVANVV | -0.013 ± 1.2
98 | GCGFSWSLCGESPYAVRPVA | 0.538 ± 0.55
99 | VFMMSDTC | inactive
100 | ECIIYPIVMHVFVQNMM | 1.56 ± 0.28

Row | Substance | amyloid nucleation score
101 | LSRLCGSRLLVRVVWRHYRG | -0.21 ± 0.28
102 | ILYFMLSRFTVVN | 0.881 ± 0.76
103 | HSCYLANCLSRVQGSKRDTE | -0.911 ± 0.54
104 | WSVISIEASLCRQVPLYANT | 0.26 ± 0.65
105 | VVNLWTQADIMRSSCRLKHV | 0.074 ± 0.19
106 | VLTCKE | -1.55 ± 1.2
107 | YFSGLKDFILISNQNGSS | 2.66 ± 0.2
108 | GGSVRRDQMVYREDMQSNST | -0.746 ± 0.93
109 | FFCERVLPVRVVC | 1.06 ± 0.76
110 | AQSSVKRWGGLCRNVMKDGW | 0.276 ± 0.32
111 | SLITVSHMPWGCT | 0.342 ± 0.36
112 | GLSGSLSSVIYSSEVRSR | 0.036 ± 0.29
113 | AWDVAS | 0.967 ± 0.6
114 | FWNFRVIC | 0.259 ± 1.4
115 | WRSSSFSGIWYVSVGYNASL | -0.455 ± 0.4
116 | SLSMLTARGLILNMCNGMRF | 1.52 ± 0.84
117 | NVYKFCDRAGLCAVGYYLGT | 3.02 ± 0.081
118 | KLCRFCNRVCYCQ | -0.691 ± 1
119 | ENWATFEEYPT | 0.243 ± 0.3
120 | ELFAFCMVPYYTRNMLWLVG | 0.584 ± 0.97
121 | MLRMQKIGLFSLGMSC | -0.838 ± 0.47
122 | FQGVGDIGSVLHAMFLCYGS | 2.94 ± 0.15
123 | QIPPRDL | 0.274 ± 0.51
124 | MLYDFVDIRECNDILPARGG | 0.043 ± 0.35
125 | LSCYLYALVKGLGLRVGHIK | 0.177 ± 0.55

Row | Substance | amyloid nucleation score
126 | VFLVYLY | -0.608 ± 0.28
127 | TLSRFPLAALNLVRVR | 0.3 ± 0.86
128 | NINYLFVLYMDGSCMYWRAL | 6.354 ± 0.049
129 | FDVIGSCVGDQWTAGMDWTL | 0.429 ± 0.51
130 | RNASIRVTSQVCYVNS | 1.3 ± 0.27
131 | GGAQMVHTSQSRCAARGV | -0.831 ± 0.7
132 | VSKTTRSCCWELFEA | -0.052 ± 0.42
133 | HVQLELTSCKEGGGCRS | 0.379 ± 0.78
134 | LSGSMGA | -0.105 ± 0.44
135 | KFIDFERLFSLRGWSVCNER | 0.889 ± 0.24
136 | YDPPTWIHNAMGG | 0.342 ± 0.41
137 | RMLFSYPCESISSHLILCEV | -0.181 ± 0.5
138 | ILWFYYTLGACFCWLYINYK | 0.26 ± 0.57
139 | TRALSFN | -0.873 ± 1.6
140 | SLYCNGVRMPLAETSGNEHL | -0.091 ± 0.43
141 | GFSIYRCHYFSGRMVTNVSM | -0.475 ± 1.7
142 | LKLCKVRMQTLLNDVGTSCP | 0.025 ± 0.4
143 | VGWTALVQALGNGTQHGVVT | 0.394 ± 0.78
144 | HDKYTLIGPRH | -1.27 ± 1.2
145 | FLWDNAVSKVKFITFVWPHI | 0.86 ± 0.32
146 | IPMLFMSLRV | 0.171 ± 0.26
147 | LYNSGSTLI | 0.342 ± 0.61
148 | ARMVVCHPAGFGGAWPSRWC | -0.105 ± 0.93
149 | SYPSGSP | -0.061 ± 0.96
150 | DSDGFQRVPD | -0.736 ± 0.68

Row | Substance | amyloid nucleation score
151 | FPQLGLG | inactive
152 | QTNMMSTHHP | 0.39 ± 0.41
153 | NGFSYVCFNGFQLMCLDSIM | 7.779 ± 0.044
154 | QVNLANFGRRKCKRKGR | 0.185 ± 0.44
155 | RFLAWTSLPQGAAKVIMKC | 0.126 ± 0.53
156 | MSVMLIS | 0.126 ± 0.44
157 | ENLRHTLHKFITI | 0.262 ± 0.62
158 | DSSLCFGSYLWLVAMSLK | -0.489 ± 0.75
159 | YDMIWSSMLGFIERQAYMLP | -0.502 ± 0.32
160 | SFSTKPTCRPPILHSLERVT | 3.62 ± 0.064
161 | YWGTS | 0.971 ± 0.49
162 | IGYCRGHAYKMRYFSVRWFV | -1.25 ± 1.7
163 | LWVVPLE | -0.643 ± 1.9
164 | LIEGRGIRGLVCCFSISFA | 8.375 ± 0.048
165 | QCRILAHAGLLPSGTCPMWL | -0.919 ± 0.92
166 | LKISWR | 0.724 ± 0.36
167 | GKLDCVKVLNVHCP | 0.527 ± 0.61
168 | FEDEPGVSFWNSGGFK | -1.07 ± 0.62
169 | VVKSSTPSSDPTTASRIWLL | -0.26 ± 0.43
170 | SGIRLM | -1.32 ± 1.8
171 | FSMVLSSTMDLRRELLWNSV | -0.299 ± 0.73
172 | PKSIGAFLTCHISRHVYYVI | 1.08 ± 0.66
173 | PYSSDAKMCHLLETASNLLV | 0.577 ± 0.56
174 | CKQCRE | -0.01 ± 0.74
